Test results taken from paper PMC5719079.

Experiments:
[1] = target: Tubulin Polymerization Promoting Protein (TPPP/p25) (human) (UniProt O94811); experiment: ELISA; plate coated with 5 ug/ml TPPP/p25 overnight in PBS; tubulin added at a serial dilution; bound tubulin detected by monoclonal tubulin antibody and HRP-conjugated secondary antibody; Kd from the saturation curve by a single binding site hyperbola model; apparent
[2] = target: Human recombinant hexaHis-tagged SIRT2 containing residues 50-356 (human) (UniProt Q8IXJ6); experiment: ELISA; plate coated with 5 μg/ml SIRT2 overnight in PBS; TPPP/p25 or tubulin added in serial dilution, detected by TPPP/p25 or tubulin antibody; apparent Kd from a single binding site hyperbola; MZ242, MZ25 and SH1 up to 30 μM did not influence the binding of 125 nM TPPP/p25 significantly
Sequence of UniProt Q8IXJ6 (Q8IXJ6 50-356): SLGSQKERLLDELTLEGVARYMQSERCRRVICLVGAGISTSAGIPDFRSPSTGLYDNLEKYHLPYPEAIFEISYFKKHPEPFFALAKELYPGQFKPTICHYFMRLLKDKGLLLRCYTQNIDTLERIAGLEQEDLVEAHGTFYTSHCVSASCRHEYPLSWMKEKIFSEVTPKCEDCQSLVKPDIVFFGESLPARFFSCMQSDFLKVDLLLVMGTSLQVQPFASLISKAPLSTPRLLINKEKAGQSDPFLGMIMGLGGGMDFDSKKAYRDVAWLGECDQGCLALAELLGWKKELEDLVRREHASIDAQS

Sequence of UniProt O94811 (O94811 whole entry, the tested form may be a part): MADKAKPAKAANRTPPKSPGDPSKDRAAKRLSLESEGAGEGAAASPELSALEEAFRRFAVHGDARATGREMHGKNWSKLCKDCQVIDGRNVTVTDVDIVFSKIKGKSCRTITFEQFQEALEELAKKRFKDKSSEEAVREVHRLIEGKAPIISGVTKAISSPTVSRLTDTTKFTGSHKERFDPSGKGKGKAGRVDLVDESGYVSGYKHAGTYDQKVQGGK

| Substance | Kd [1] | Kd [2] |
| --- | --- | --- |
| tubulin (from UniProt Q6B856 1-445) (complex) | 10 nM | – |
| Tubulin prepared from bovine brain (from UniProt Q6B856 1-445) (complex) | – | > 2000 nM |
